# Source: patent US20210340246A1 (GlaxoSmithKline, published 2021)
# B1: mepolizumab (monoclonal anti-IL-5 antibody; unstressed composition / control samples) (antibody, human IgG1, kappa)
# heavy: not shown
# light: not shown
# modifications: N-terminal Gln cyclised to pyroglutamate (typically >95.0%); C-terminal K449 clipped (typically >98.0%); N299 N-glycosylated
# notes: Batches MDS1 T04L003S and MDS2 T0413010; also called Oxidation Control; Light Exposure Control
# Biological target: T1, human IL-5 (human, UniProt P05113 20-134)
# T1 construct: The IL-5 reagent of the SPR assay is not described further; also called interleukin-5; soluble IL-5
# Test: standard surface plasmon resonance assays
binder,measurement,value
B1,Kd,< 0.0229 nM
